Experimental data taken from article PMC2944331, “Similarity of Recombinant Human Perlecan Domain 1 by Alternative Expression Systems Bioactive Heterogenous Recombinant Human Perlecan D1” (BMC Biotechnology, 2010).

Tests used:
Experiment in all cases: far-Western, overlay or dot blot; growth factor dot blot: 500 ng growth factor bound to nitrocellulose; 1 μg/ml rhPln.198, rhPln.247 or heparinase III digested rhPln.247 in PBS-Tween overnight at 4°C; detected with anti-perlecan domain 1 mAb CSI 001-71
Settings in all cases: both partners purified
[1] = molecular target: T1, recombinant human perlecan domain 1, amino acids 1-198 (rhPln.198), enriched high Mr glycosylated pool (human, UniProt P98160 22-198, glycosaminoglycan chains, either heparan sulfate (about 1/3 of the pool) or chondroitin sulfate (about 2/3), at the three SGD linkage sites)
T1 construct: signal peptide in the construct; Heterogeneous proteoglycan pool with minor contaminants (bovine lumican, haemoglobin, BSA); also called rhPln.D1; Pln.D1
T1 sequence (P98160 22-198): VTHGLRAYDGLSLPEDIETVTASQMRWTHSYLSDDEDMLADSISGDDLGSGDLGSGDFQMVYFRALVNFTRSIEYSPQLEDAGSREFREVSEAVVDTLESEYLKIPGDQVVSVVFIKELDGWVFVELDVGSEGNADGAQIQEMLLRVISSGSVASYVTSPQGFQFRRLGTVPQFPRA

[2] = molecular target: T2, rhPln.247 digested with heparinase III (human, UniProt P98160 22-247, heparan sulfate chains digested with heparinase III; chondroitin sulfate chains not digested)
T2 construct: signal peptide in the construct; Same polypeptide as m2; Only the glycosaminoglycan chains differ; also called heparinise III digested rhPln.247; rhPln.247 pre-digested with heparinase III; source: HEK 293 cells, enriched high Mr pool, then digested with heparinase III (1 mU/μg, overnight, 37°C)
T2 sequence (P98160 22-247): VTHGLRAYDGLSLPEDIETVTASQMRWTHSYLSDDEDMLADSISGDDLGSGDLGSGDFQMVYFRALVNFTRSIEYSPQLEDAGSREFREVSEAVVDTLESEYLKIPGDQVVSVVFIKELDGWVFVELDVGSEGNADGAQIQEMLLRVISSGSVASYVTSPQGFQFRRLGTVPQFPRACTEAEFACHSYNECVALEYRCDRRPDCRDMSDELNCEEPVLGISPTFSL

[3] = molecular target: T3, recombinant human perlecan domain 1, amino acids 1-247 (rhPln.247), enriched high Mr glycosylated pool (human, UniProt P98160 22-247, glycosaminoglycan chains, either heparan sulfate (about 1/3 of the pool) or chondroitin sulfate (about 2/3), at the three SGD linkage sites)
T3 construct: signal peptide in the construct; Heterogeneous proteoglycan pool; also called rhPln.D1; Pln.D1
T3 sequence (P98160 22-247): as above

Measured: binding result

B1: recombinant human bone morphogenetic protein 7 (rhBMP-7) (ligand)
chain: STGSKQRSQNRSKTPKNQEALRMANVAENSSSDQRQACKKHELYVSFRDLGWQDWIIAPEGYAAYYCEGECAFPLNSYMNATNHAIVQTLVHFINPETVPKPCCAPTQLNAISVLYFDDSSNVILKKYRNMVVRACGCH
notes: human bone morphogenetic protein 7, recombinant
binds: all assays above

B2: recombinant human bone morphogenetic protein 6 (rhBMP-6) (ligand)
chain: SASSRRRQQSRNRSTQSQDVARVSSASDYNSSELKTACRKHELYVSFQDLGWQDWIIAPKGYAANYCDGECSFPLNAHMNATNHAIVQTLVHLMNPEYVPKPCCAPTKLNAISVLYFDDNSNVILKKYRNMVVRACGCH
notes: human bone morphogenetic protein 6, recombinant
binds: all assays above
